Laboratory results taken from the supplement of paper PMC10567573.

B1: ZNF263 (parent)
chain: LLRHQRIHTGERPYKCPECGKSFS
B2: CDS2 (parent)
chain: LIVVTQSHLVIHNLFEGMIWFIVP

Variants of: B1
Assay: protein stability index of a GFP-peptide fusion (GPS, HEK-293T) (PSI 1-6); higher = more stable
Conditions: c terminus: a fixed tail appended
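Further: lentivirally expressed fusions sorted by FACS into six bins by GFP to DsRed ratio, PSI derived from sequencing read proportions per bin multiplied by bin number.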

Protein stability index, by site and new letter:
Q5: M 2.21 | G 1.87 | L 2.4 | K 2.28 | R 2.09 | C 1.95 | P 2.3 | N 2.29 | D 2.23 | T 2.82 | V 1.74 | I 2.13 | S 2.36 | H 2.74 | W 1.66 | E 3.06 | A 2.63
L1: A 2.82 | N 2.85 | Y 3.07 | R 4.23 | P 2.83 | W 2.95 | G 2.73 | F 3.5 | E 2.29 | T 2.9 | D 2.62 | I 2.06 | K 3.58 | Q 4.46 | V 3.03 | S 2.26 | M 1.65 | H 2.44 | C 4.12
L2: S 3.11 | Q 2.57 | Y 1.82 | D 3.39 | I 1.78 | P 2.63 | A 1.96 | W 1.86 | G 2.76 | N 3.27 | H 3.11 | M 3.08 | C 4.89 | F 3.31 | T 2.71 | E 3.61 | V 4.05
H4: T 1.69 | D 2.58 | R 3.38 | N 2.24 | M 1.73 | C 3.89 | Q 2.56 | P 2.25 | V 3.58 | E 2.81 | A 2.18 | G 2.99 | W 1.77 | Y 2.12 | K 2.2 | I 1.96 | F 1.92 | S 2.23 | L 2.15
R6: A 2.68
R3: L 1.63 | F 1.58 | Q 2.34 | K 2.48 | P 2.76 | G 2.68 | D 3.77 | M 2.04 | T 3.27 | H 2.56 | V 2.3 | Y 1.62 | A 3.21 | C 2.98 | E 2.9 | W 2.3 | N 2.28 | S 2.81 | I 2.25

Variants of: B2
Assay: as above
Conditions: c terminus: a fixed tail appended

Protein stability index of substitutions, site by site:
H8: V 4.43 | I 2.81 | D 4.35 | C 3.31 | S 4.08 | M 2.48 | N 3.36 | T 2.91 | G 4.59 | W 2.77 | R 2.81 | L 3.47 | E 2.35 | F 3.38
I22: K 3.07 | M 3.27 | P 2.56 | D 4.26 | Y 2.27 | T 3.85 | S 3.28 | L 3.99 | F 2.83 | W 3.42 | E 3.14 | Q 1.69 | N 1.8 | A 2.07 | R 2.85
S7: T 4.59 | R 4.35 | W 3.44 | V 3.79 | N 2.81 | P 4.35 | Y 3.16 | L 3.2
W20: K 1.61 | R 2.57 | S 3.64 | G 2.19 | F 2.83 | H 3.23 | C 3.16 | P 2.6 | N 3.08 | M 2.28 | Q 4.66 | E 2.38 | D 2.87 | V 3.06 | I 3.21
I19: G 3.67 | F 2.89 | M 2.95 | K 2.41 | W 3.61 | P 3.75 | L 1.84 | Q 3.36 | S 2.75 | A 2.65
N13: T 1.61 | V 3.45 | H 1.83 | F 2.94 | L 3.44 | G 2.9 | A 4.23 | Y 2.44 | E 2.93 | P 3.48 | S 3.02 | C 3.03 | D 2.63 | M 4.66 | R 2.08 | I 4.67 | K 2.81
M18: Y 3.67 | V 4.17 | C 4.05 | F 3.12 | E 4.08 | R 1.99 | A 4.48 | W 2.66 | I 3.09 | S 2.98 | Q 2.68 | P 2.89 | K 1.96 | G 2.85 | D 3.2
G17: W 2.35 | V 3.48 | D 2.93 | E 2.55 | Q 2.63 | M 3.13 | H 2.8 | N 2.29 | Y 1.68 | S 3.9 | I 1.85 | A 3.15 | R 3.21 | L 3.83 | P 2.82
V23: T 3.31 | Q 1.52 | S 1.85 | F 4.17 | W 1.67 | A 2.36 | E 4.22 | C 3.47 | D 3.03 | L 3.54 | Y 3.02 | N 2.51 | I 2.9
P24: L 2.19 | V 2.65 | S 1.99 | F 2.52 | N 2.81 | W 3.81 | M 2.59 | Y 2.3 | G 3.29 | R 3.1 | D 2.06 | C 3.63 | H 3.13
F21: E 1.96 | C 3.4 | K 4.85 | T 3.04 | I 3.28 | G 2.49 | R 2.94 | Y 2.52 | L 3.42 | V 2.39 | S 2.8 | W 1.6 | N 3.24
H12: L 3.7 | M 2.67 | K 2.6 | D 3.58 | T 4.2 | G 3.39 | P 1.35 | R 1.5 | A 3.32 | I 1.85 | C 3.91
I11: C 3.04 | L 2.48 | W 1.04 | E 2.39 | R 2.2 | F 3.51 | D 3.58 | H 1.57 | M 2.84 | N 4.03 | G 2.27 | K 4.09 | S 3.42 | V 2.52
F15: E 2.13 | V 2.72 | S 3.64 | P 2.8 | N 3.64 | I 3.58 | Q 2.25 | R 2.03 | K 3.4 | L 2.41 | M 4.48 | W 4.64
L14: K 3.69 | T 3.05 | Q 2.25 | P 2.64 | A 1.86 | W 2.72 | G 3.6 | E 2.99 | I 3.44 | D 3.03 | Y 3.06 | F 2.92 | V 2.71
V10: W 2.46 | M 2.77 | Q 4.6 | H 2.88 | F 3.01 | L 1.96 | G 1.83 | P 1.52 | T 2.15 | I 4.56 | D 1.79 | C 2.23 | A 3.19 | K 2.67
L9: V 2.3 | H 1.56 | W 2.91 | S 1.96 | D 2.62 | I 1.84 | R 2.9 | K 3.33 | P 5.08 | A 2.29 | Y 2.24 | N 2.36 | Q 3.56 | F 1.48 | T 3.82
E16: Q 2.01 | F 2.52 | L 4.5 | I 3.46 | K 2.35 | T 2.83 | W 3.98 | D 3.44 | Y 2.74 | A 4.16 | M 3.76 | P 2.48 | N 3.06 | S 3.4 | G 2.9
